Values of other authors in publication PMC8776070.
pKd: −log10 of the molar value.

Key:
ACKR1 (Homo sapiens) = ACKR1 (Homo sapiens) (UniProt Q16570)
CXCR1 (Homo sapiens) = CXCR1 (Homo sapiens) (UniProt P25024)
CXCR2 (Homo sapiens) = CXCR2 (Homo sapiens) (UniProt P25025)
UniProt P25025, sequence (P25025 whole entry): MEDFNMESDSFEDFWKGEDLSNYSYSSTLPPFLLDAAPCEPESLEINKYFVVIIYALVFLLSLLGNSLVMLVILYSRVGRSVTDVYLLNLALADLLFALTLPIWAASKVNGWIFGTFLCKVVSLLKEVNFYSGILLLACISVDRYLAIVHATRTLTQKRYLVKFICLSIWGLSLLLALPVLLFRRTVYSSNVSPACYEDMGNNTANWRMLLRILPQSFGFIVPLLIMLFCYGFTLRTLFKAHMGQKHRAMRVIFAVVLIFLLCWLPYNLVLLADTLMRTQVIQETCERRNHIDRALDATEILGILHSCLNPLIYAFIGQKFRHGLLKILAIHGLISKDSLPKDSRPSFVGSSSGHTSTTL

UniProt Q16570, sequence (Q16570 whole entry): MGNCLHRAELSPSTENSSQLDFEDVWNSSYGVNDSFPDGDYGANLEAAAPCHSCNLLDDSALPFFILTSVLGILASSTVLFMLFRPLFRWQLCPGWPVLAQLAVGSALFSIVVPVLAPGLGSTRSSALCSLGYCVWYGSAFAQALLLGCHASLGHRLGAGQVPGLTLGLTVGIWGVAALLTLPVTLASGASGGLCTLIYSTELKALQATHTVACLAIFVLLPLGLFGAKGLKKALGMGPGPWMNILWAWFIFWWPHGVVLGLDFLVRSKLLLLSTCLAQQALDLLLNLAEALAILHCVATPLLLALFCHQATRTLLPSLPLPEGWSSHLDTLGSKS
UniProt P25024, sequence (P25024 whole entry): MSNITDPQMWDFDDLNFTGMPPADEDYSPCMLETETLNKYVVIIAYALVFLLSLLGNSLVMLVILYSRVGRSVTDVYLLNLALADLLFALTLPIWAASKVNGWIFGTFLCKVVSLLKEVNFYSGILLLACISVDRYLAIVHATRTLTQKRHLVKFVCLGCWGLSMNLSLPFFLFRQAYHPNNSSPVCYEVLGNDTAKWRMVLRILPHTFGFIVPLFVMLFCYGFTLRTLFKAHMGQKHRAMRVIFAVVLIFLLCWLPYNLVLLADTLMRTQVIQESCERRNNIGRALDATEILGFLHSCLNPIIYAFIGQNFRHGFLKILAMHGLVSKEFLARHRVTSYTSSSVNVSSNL

Substance: CXCL1 (from UniProt P09341)
- pKd (ACKR1 (Homo sapiens)): 8.74
- pKd (CXCR1 (Homo sapiens)): 6.52
- pKd (CXCR2 (Homo sapiens)): 8.52
